Assay results taken from patent US20090082410A1.

Target: angiotensin II type 1A receptor
Assay: cell-based or functional assay

arrestin-GFP
arrestinGFP translocation response (Fgrains, INCell Analyzer), U2OS cells, 1:4 dilution of GRK2-C20 baculovirus, no ligand: 305 Fgrains
arrestinGFP translocation response (Fgrains, INCell Analyzer), U2OS cells, 1:256 dilution of GRK2-C20 baculovirus, no ligand: 77 Fgrains
arrestinGFP translocation response (Fgrains, INCell Analyzer), U2OS cells, no added GRK2-C20, no ligand: 18 Fgrains
